Assays:
[1] = Activity of purified TPM for 1-benzyl-3-pyrrolidinone and optical purity of product; format: biochemical; settings: 2 hours
Experimental: The above properties can be determined by the following method. Specifically, a purified polypeptide is added to a substrate solution having the following composition so that it has a final concentration ranging from 0.1 mg/mL to 1 mg/mL for reaction at 30° C. Furthermore, the reaction is continued until 0.6 mM or more 1-benzyl-3-aminopyrrolidine (as determined by the following quantitative analysis) is generated. After the completion of the reaction, the optical purity of the 1-benzyl-3-aminopyrrolidine generated in the reaction solution is analyzed by HPLC under the following conditions. […]
[High Performance Liquid Chromatography (HPLC) Analysis Conditions] • <Quantitative A> • Column: Finepak SIL C18-T (JASCO Corporation) • Eluent: distilled water 1260 mL/acetonitrile 740 mL/KH2 PO4 10 g/SDS 2.88 g (pH3.6) • Flow rate: 1 mL/minute • Detection: 254 nm • Column temperature: 40° C. […]
A reaction solution was treated with an appropriate amount of sodium carbonate so that it became basic, derivatized with dinitrobenzoyl chloride, and then analyzed under the following conditions. • Column: Chiral pak IA (Daicel Corporation) • Eluent: hexane/ethanol/diethylamine/acetonitrile=800/200/1/5 (volume ratio) • Flow rate: 0.8 mL/minute • Detection: 254 nm

[2] = Optimum pH of transamination activity; format: biochemical
Experimental: The optimum pH for transamination is determined by the above activity assay A using combinations of the following buffers and pHs. […] When activity levels are different depending on buffer types, the activity level higher than the other is employed even if the pHs are the same. • pH4.0, 4.5, 5.0, 5.5: 0.1 M sodium acetate buffer • pH6.0, 6.5, 7.0, 7.5, 8.0: 0.1 M potassium phosphate buffer • pH7.5, 8.0, 8.5, 9.0: 0.1M Tris-hydrochloric acid buffer (Optimum Temperature)
(§1) The transamination activity of purified TPM was examined under the following activity assay conditions. Specifically, purified TPM was added to a substrate solution with the composition given below to a total amount of 1 mL. After 5 minutes of reaction at 30° C., 0.05 mL of 6N hydrochloric acid was added to stop the reaction. HPLC analysis was conducted under the following conditions.
Transamination activity was determined in a manner similar to the above at pHs ranging from 4.0 to 9.0 and then the optimum pH of TPM was examined.
The following buffers were used according to pH for determination.
[Buffer] • pH4.0, 4.5, 5.0, or 5.5: 0.1 M sodium acetate buffer • pH6.0, 6.5, 7.0, 7.5, or 8.0: 0.1 M potassium phosphate buffer • pH7.5, 8.0, 8.5, or 9.0: 0.1 M tris-hydrochloric acid buffer • (3) Optimum Temperature: […]

[3] = Optimum temperature of transamination activity; format: biochemical
Experimental: as §1
Transamination activity was determined at 10° C., 20° C., 30° C., 40° C., 50° C., 60° C., and 70° C. under the same conditions above.

[4] = Thermal stability (residual activity after 30 minutes heating); format: physicochemical; settings: for Residual activity: pH7.5, before heat treatment = 100
Experimental: The thermal stability of the polypeptide is determined as follows.
The purified TPM was reacted for 30 minutes in 0.1 M potassium phosphate buffer (pH7.5) containing 0.5 mM pyridoxal phosphate at 30° C., 40° C., 50° C., 60° C., 70° C., and 80° C., and then activity assay was performed in a similar manner. As a result, 90% or more of the activity before heat treatment remained after treatment at 30° C. to 60° C.

[5] = Resistance to water-soluble organic solvent (residual activity); format: physicochemical; settings: 2 hours, 30° C.
Experimental: Resistance to a water-soluble organic solvent can be determined by the following method. Specifically, first, 800 uL of each water-soluble organic solvent is added to 200 uL of a 0.1 M aqueous potassium phosphate solution (pH7.5) supplemented with 0.5 mM PLP containing a purified polypeptide, so that the solvent is brought into contact with the solution at 30° C. for 2 hours. Subsequently, the resultant is diluted with a 0.1 M aqueous potassium phosphate solution supplemented with 0.5 mM PLP. Activity in the dilute solution is compared with the same in a purified polypeptide solution before addition of the solvent using the above activity assay A.
• (5) Resistance to water-soluble organic solvent: 800 μL of 1-propanol, 2-propanol, or acetone was added to 200 μL of 0.1 M potassium phosphate buffer (pH7.5) containing 0.5 mM pyridoxal phosphate to which purified TPM had been added, followed by 2 hours of treatment at 30° C. After treatment, 0.1 M potassium phosphate buffer (pH7.5) containing 0.5 mM pyridoxal phosphate was diluted 20-fold, and then the activity of the diluted solution was determined under conditions similar to those above.
The resistance of commercially available Vibrio fluvialis-derived ω-Transaminase VF (Julich-Chemicals) to a water-soluble organic solvent was examined by a method similar to that for resistance to a water-soluble organic solvent in Example 9 (5).

B1: TPM: purified aminotransferase polypeptide from Pseudomonas sp. MV37, about 50,000 molecular weight, amino acid sequence SEQ ID NO: 1 (protein, listed as Pseudomonas sp.)
chain: MNHLEKMLELDRNHLIHPHLPKSEFSRTIFARGKGCKLWDTEGREYLDATGGLWLAQIGHGREEIAEVAARQMKQLEYFTCFWDFSNERAIELAEKLARLAPGDLEMSFFTSGGSEGDDAAIKTARYYHSQRGEPKRTWILSRNNAYHGLAYGGGTATGFPELRDGMGPGLPHVAYLTQPNAYRHYYFDGQNPTDFCVSELEKMIASIGAENIAAMIAEPIMGVGGMVPPPVDYWPRMSQVLKKNGILLIFDEVVSAFGRSGHWFAAEKYGVIPDIMVTAKGISSGYIPLGAVIMSRDVADTVREGHGYPLGYTYSGHPVACAVALENLRILEDEDLINRSNHMGTYIAEQLTALRDNPCVGEVRQAGMGIGIELVTDKESRQPLPDAALVIPDIIREETGVIVRISNATNLCMSPPLTMSREEADRAVEAVCSVLSRVKPDGKV
- conversion rate ([1]; (S)-1-phenethylamine 85.6 mM, 1-benzyl-3-pyrrolidinone 57.1 mM, pH 7.0, 30° C.): 90%
- optical purity ([1]; generated (S)-1-benzyl-3-aminopyrrolidine, 30° C.): 98.0 % e.e.
- Relative activity ([2]; 0.1M Potassium phosphate, pH 6.0, activity at pH7 = 100): 86
- Relative activity ([2]; 0.1M Potassium phosphate, pH 6.5, activity at pH7 = 100): 94
- Relative activity ([2]; 0.1M Potassium phosphate, pH 7.0, designated as 100): 100
- Relative activity ([2]; 0.1M Potassium phosphate, pH 7.5, activity at pH7 = 100): 88
- Relative activity ([2]; 0.1M Potassium phosphate, pH 8.0, activity at pH7 = 100): 67
- Relative activity ([2]; 0.1M Sodium acetate, pH 4.0, activity at pH7 = 100): 7
- Relative activity ([2]; 0.1M Sodium acetate, pH 4.5, activity at pH7 = 100): 25
- Relative activity ([2]; 0.1M Sodium acetate, pH 5.0, activity at pH7 = 100): 57
- Relative activity ([2]; 0.1M Sodium acetate, pH 5.5, activity at pH7 = 100): 71
- Relative activity ([2]; 0.1M Tris-hydrochloric acid, pH 7.5, activity at pH7 = 100): 96
- Relative activity ([2]; 0.1M Tris-hydrochloric acid, pH 8.0, activity at pH7 = 100): 95
- Relative activity ([2]; 0.1M Tris-hydrochloric acid, pH 8.5, activity at pH7 = 100): 85
- Relative activity ([2]; 0.1M Tris-hydrochloric acid, pH 9.0, activity at pH7 = 100): 67
- optimum temperature ([3]; 10° C. to 70° C. tested): 60 °C
- Relative activity ([3]; Reaction temperature 10° C., activity at 60° C. = 100): 8
- Relative activity ([3]; Reaction temperature 20° C., activity at 60° C. = 100): 16
- Relative activity ([3]; Reaction temperature 30° C., activity at 60° C. = 100): 33
- Relative activity ([3]; Reaction temperature 40° C., activity at 60° C. = 100): 49
- Relative activity ([3]; Reaction temperature 50° C., activity at 60° C. = 100): 77
- Relative activity ([3]; Reaction temperature 60° C., designated as 100): 100
- Relative activity ([3]; Reaction temperature 70° C., activity at 60° C. = 100): 68
- activity remaining relative to before heat treatment ([4]; after treatment at 30° C. to 60° C.): ≥ 90%
- Residual activity ([4]; treatment 30° C.): 108
- Residual activity ([4]; treatment 40° C.): 115
- Residual activity ([4]; treatment 50° C.): 120
- Residual activity ([4]; treatment 60° C.): 100
- Residual activity ([4]; treatment 70° C.): 12
- Residual activity rate (%) ([5]; 1-Propanol 80% v/v): 97%
- Residual activity rate (%) ([5]; 2-Propanol 80% v/v): 100%
- stability against 1-propanol, 2-propanol, and acetone ([5]; 80% v/v solvent): extremely stable
- Residual activity rate (%) ([5]; Acetone 80% v/v): 99%

Reference: patent US9481870B2, “Nucleic acid encoding a polypeptide having aminotransferase activity, vectors and host cells comprising the nucleic acid” (KANEKA CORPORATION, priority 2010, dated 2016)
